Data published in paper PMC7545097, “Mapping the native interaction surfaces of PREP1 with PBX1 by cross-linking mass-spectrometry and mutagenesis” (Scientific Reports, 2020).
One block for each binder: values may come before it.

Columns and labels:
PREP1_(1-344) = biological target: T1, PREP1_(1-344) (UniProt P55347 1-344); experiment: cross-linking; purified complex at 1 mg/ml in 50 mM borate-buffered saline, 1 mM BS^3, 1 h at room temperature; SDS-PAGE, in-gel Glu-C and trypsin digestion, nLC-ESI-MS/MS, pLink 2; two biological replicates; settings: both partners purified
T1 construct: PREP1 (PKNOX1), residues 1-344, lacking the C-terminal region; Second cassette of the di-cistronic vector pGEX-6P-2RBS; also called PKNOX1; C-terminal truncated PREP1; source: E. coli, co-expressed with PBX1(1-308), purified as a complex (cation exchange, SEC on Superose 6)
T1 sequence (looked up): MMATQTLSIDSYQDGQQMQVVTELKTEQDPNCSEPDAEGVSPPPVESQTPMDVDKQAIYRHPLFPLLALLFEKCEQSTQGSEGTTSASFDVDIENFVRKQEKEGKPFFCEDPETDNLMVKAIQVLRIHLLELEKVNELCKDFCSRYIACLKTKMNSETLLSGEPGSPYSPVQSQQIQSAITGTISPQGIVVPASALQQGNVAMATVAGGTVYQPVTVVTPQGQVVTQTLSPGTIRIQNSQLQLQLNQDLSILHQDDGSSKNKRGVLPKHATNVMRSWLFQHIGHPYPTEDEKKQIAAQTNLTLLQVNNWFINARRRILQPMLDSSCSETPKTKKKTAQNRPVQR

[1] = biological target: T2, full-length MEIS1 (MEIS1_(1-390)) in the purified MEIS1-PBX1 complex (UniProt O00470 1-390); experiment: as above; settings: both partners purified
T2 construct: MEIS1, full length, residues 1-390; source: E. coli, purified as a complex with PBX1(1-308)
T2 sequence (looked up): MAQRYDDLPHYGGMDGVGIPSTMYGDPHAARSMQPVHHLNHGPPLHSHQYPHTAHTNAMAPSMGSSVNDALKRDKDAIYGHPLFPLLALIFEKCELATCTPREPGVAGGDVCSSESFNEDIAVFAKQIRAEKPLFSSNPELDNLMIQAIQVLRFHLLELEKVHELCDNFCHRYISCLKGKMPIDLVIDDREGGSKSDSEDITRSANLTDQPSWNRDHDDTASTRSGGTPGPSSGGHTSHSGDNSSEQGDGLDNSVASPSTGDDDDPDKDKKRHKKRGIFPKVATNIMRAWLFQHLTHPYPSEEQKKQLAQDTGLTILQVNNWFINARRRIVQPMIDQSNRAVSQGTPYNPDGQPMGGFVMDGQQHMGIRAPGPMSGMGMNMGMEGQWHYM

PBX1Δ197-204 (human) = PBX1Δ197-204 (human) (UniProt P40424); experiment: time-resolved fluorescence immunoassay (TR-FIA); plate coated with monoclonal anti-PBX1; PBX1 pre-incubated with PREP1 or MEIS1 for 1 h on ice, 10 µg/mL in 1% BSA PBS, 1 h at room temperature on the plate; detected with anti-PREP1 or biotinylated anti-MEIS1/2 and Eu^3+ conjugates; normalised to the wild-type protein taken as 1
PBX1Δ43-55 = biological target: T3, PBX1Δ43-55 (human, UniProt P40424 1-430, Δ43-55); experiment: as above; settings: both partners purified
T3 construct: PBX1, residues 1-430, with an internal deletion; source: E. coli, purified
T3 sequence (looked up): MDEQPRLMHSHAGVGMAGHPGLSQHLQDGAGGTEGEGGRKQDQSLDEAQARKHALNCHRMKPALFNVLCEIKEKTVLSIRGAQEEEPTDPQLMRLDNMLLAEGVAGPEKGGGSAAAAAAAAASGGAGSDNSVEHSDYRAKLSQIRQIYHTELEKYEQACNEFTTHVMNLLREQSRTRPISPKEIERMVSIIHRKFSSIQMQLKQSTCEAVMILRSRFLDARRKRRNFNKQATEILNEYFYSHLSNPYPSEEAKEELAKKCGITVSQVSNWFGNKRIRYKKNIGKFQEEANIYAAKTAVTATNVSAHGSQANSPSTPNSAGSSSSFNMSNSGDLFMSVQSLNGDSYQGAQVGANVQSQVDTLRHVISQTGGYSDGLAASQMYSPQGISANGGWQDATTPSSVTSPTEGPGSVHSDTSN

PBX1 Δ77-84 = biological target: T4, PBX1 Δ77-84 (human, UniProt P40424 1-430, Δ77−84); experiment: as above; settings: both partners purified
T4 construct: PBX1, residues 1-430, with an internal deletion; source: E. coli, purified
T4 sequence (looked up): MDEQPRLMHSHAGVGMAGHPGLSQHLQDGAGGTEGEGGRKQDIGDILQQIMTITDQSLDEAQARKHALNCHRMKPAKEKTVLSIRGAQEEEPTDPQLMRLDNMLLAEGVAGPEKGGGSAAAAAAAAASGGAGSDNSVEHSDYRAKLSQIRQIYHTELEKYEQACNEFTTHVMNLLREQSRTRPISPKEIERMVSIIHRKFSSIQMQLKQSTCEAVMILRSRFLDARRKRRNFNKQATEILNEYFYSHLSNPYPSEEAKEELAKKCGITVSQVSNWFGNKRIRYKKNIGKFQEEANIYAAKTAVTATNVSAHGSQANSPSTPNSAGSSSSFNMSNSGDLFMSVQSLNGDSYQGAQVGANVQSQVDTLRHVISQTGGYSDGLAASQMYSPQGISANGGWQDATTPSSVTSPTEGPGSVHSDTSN

PBX1 Δ105-113 = biological target: T5, PBX1 Δ105-113 (human, UniProt P40424 1-430, Δ105-113); experiment: as above; settings: both partners purified
T5 construct: PBX1, residues 1-430, with an internal deletion; source: E. coli, purified
T5 sequence (looked up): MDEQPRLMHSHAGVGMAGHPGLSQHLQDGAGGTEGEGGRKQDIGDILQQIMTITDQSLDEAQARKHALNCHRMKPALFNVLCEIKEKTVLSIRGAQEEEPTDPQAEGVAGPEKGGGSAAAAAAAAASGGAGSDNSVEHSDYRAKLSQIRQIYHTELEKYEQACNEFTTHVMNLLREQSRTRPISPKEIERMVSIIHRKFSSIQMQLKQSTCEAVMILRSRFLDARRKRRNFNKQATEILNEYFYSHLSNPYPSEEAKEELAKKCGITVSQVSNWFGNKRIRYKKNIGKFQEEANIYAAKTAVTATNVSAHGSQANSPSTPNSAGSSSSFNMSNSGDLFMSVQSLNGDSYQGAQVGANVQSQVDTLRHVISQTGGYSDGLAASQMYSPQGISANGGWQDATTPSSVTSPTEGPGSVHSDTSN

[2] = biological target: T6, PBX1_(1-430), wild-type recombinant (human, UniProt P40424 1-430); experiment: ELISA; PBX1 wild-type coated at 0.1 µM in 100 mM Tris–HCl pH 7.5; GST-fused proteins at 0.23 nM to 0.5 µM, 1 h at 37 °C; anti-GST detection; GST signal subtracted; one-site binding model; settings: both partners purified
T6 construct: also called wild-type PBX1; purified recombinant human PBX1; source: E. coli, purified
T6 sequence (looked up): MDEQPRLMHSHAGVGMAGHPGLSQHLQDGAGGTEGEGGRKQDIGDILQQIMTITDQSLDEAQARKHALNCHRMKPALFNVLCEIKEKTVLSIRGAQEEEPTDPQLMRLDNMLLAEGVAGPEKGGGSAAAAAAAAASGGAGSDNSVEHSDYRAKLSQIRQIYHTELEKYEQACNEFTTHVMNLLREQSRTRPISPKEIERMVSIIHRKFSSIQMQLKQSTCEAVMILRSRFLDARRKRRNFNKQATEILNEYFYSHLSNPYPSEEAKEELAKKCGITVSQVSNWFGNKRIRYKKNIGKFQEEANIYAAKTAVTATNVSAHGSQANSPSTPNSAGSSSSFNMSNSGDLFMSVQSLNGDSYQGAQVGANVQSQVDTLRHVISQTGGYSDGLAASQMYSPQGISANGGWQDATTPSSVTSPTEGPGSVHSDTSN

binding result (PREP1_(1-344)): binds
binding result [1]: binds
B1: PBX1_(1-308) (domain or fragment, human, UniProt P40424 1-308, looked up)
chain: MDEQPRLMHSHAGVGMAGHPGLSQHLQDGAGGTEGEGGRKQDIGDILQQIMTITDQSLDEAQARKHALNCHRMKPALFNVLCEIKEKTVLSIRGAQEEEPTDPQLMRLDNMLLAEGVAGPEKGGGSAAAAAAAAASGGAGSDNSVEHSDYRAKLSQIRQIYHTELEKYEQACNEFTTHVMNLLREQSRTRPISPKEIERMVSIIHRKFSSIQMQLKQSTCEAVMILRSRFLDARRKRRNFNKQATEILNEYFYSHLSNPYPSEEAKEELAKKCGITVSQVSNWFGNKRIRYKKNIGKFQEEANIYAAK
notes: PBX1, residues 1-308, lacking the C-terminal region; First cassette of the di-cistronic vector pGEX-6P-2RBS, with PREP1 in the second; also called C-terminal truncated PBX1; source: E. coli, purified as a complex with PREP1(1-344) or with MEIS1 (ion exchange, SEC on Superose 6)

binding relative to wild type (PBX1Δ197-204 (human)): 45%
binding relative to wild type (PBX1Δ43-55): 60%
binding relative to wild type (PBX1 Δ77-84): 35%
binding result (PBX1 Δ105-113): binds
B2: MEIS1_(1-390), wild-type recombinant (TR-FIA) (natural protein, UniProt O00470 1-390, looked up)
chain: MAQRYDDLPHYGGMDGVGIPSTMYGDPHAARSMQPVHHLNHGPPLHSHQYPHTAHTNAMAPSMGSSVNDALKRDKDAIYGHPLFPLLALIFEKCELATCTPREPGVAGGDVCSSESFNEDIAVFAKQIRAEKPLFSSNPELDNLMIQAIQVLRFHLLELEKVHELCDNFCHRYISCLKGKMPIDLVIDDREGGSKSDSEDITRSANLTDQPSWNRDHDDTASTRSGGTPGPSSGGHTSHSGDNSSEQGDGLDNSVASPSTGDDDDPDKDKKRHKKRGIFPKVATNIMRAWLFQHLTHPYPSEEQKKQLAQDTGLTILQVNNWFINARRRIVQPMIDQSNRAVSQGTPYNPDGQPMGGFVMDGQQHMGIRAPGPMSGMGMNMGMEGQWHYM
notes: MEIS1, full length, residues 1-390; also called wild-type MEIS1; source: E. coli, purified

Kd [2]: 80 ± 17 nM
B3: GST-fused wild-type MEIS1 (natural protein, UniProt O00470 1-390, looked up)
chain: MAQRYDDLPHYGGMDGVGIPSTMYGDPHAARSMQPVHHLNHGPPLHSHQYPHTAHTNAMAPSMGSSVNDALKRDKDAIYGHPLFPLLALIFEKCELATCTPREPGVAGGDVCSSESFNEDIAVFAKQIRAEKPLFSSNPELDNLMIQAIQVLRFHLLELEKVHELCDNFCHRYISCLKGKMPIDLVIDDREGGSKSDSEDITRSANLTDQPSWNRDHDDTASTRSGGTPGPSSGGHTSHSGDNSSEQGDGLDNSVASPSTGDDDDPDKDKKRHKKRGIFPKVATNIMRAWLFQHLTHPYPSEEQKKQLAQDTGLTILQVNNWFINARRRIVQPMIDQSNRAVSQGTPYNPDGQPMGGFVMDGQQHMGIRAPGPMSGMGMNMGMEGQWHYM
notes: MEIS1, full length, residues 1-390; Detected through GST in the ELISA; source: E. coli, purified
